The values that follow come from patent US11497805B2, “Toll-like receptor 2 agonists and vaccines and uses thereof” (The Provost, Fellows, Foundation Scholars & the Other …, priority 2014, dated 2022).

Test [1] deals with bone marrow-derived DCs from TLR4-defective C3H/HeJ mice. Nature of the test: Cytokine production by bone marrow-derived DC stimulated with BP1569 (ELISA). Particulars: BP1569 100 and 1000 ng/ml, 24 h. In kind it is cell-based. The protocol: (§1) Lipase-treated or untreated BP1569 (100 ng/ml) was used to stimulate BMDC from C3H/HeJ mice.
(§2) Bone marrow derived dendritic cells (DCs) were prepared by culturing bone marrow cells obtained from the femur and tibia of mice in complete RPMI (cRPMI, RPMI containing 10% fetal calf serum, 100 U/ml penicillin, 100 μg/ml streptomycin, 2 mM 1-glutamine (Invitrogen), and 50 μM 2-ME (Sigma-Aldrich) supplemented with GM-CSF 40 ng/ml. Cells were re-cultured with fresh medium containing 40 ng/ml GM-CSF every 3 d for a period of 8 d. DC were seeded at 1×10^6 cells per ml 24 hr prior to stimulation. ELISA assays were performed using R&D kits according to the manufacturer's instructions. Spleen cells from C3H/HeJ mice were seeded at 2×10^6 cells per ml and stimulated with Pam3Cys4 (120nM) or BP1569 (120 nM) for the indicated times, with or without addition of T2.5-anti-TLR2 antibody or an isotype control (Hycult Biotech). For p38 activation assays, samples were lysed with RIPA buffer and SDS-PAGE was performed followed by Western blotting with anti-phospho-p38 and β-actin antibodies (Cell Signaling).
(§3) The present inventors examined the capacity of pertussis lipoprotein to activate innate immune cells in vitro using bone marrow-derived DCs from TLR4-defective C3H/HeJ mice. […] Furthermore, stimulation of DCs with BP1569 for 24 hours enhanced surface expression of MHC class II, CD80 and CD86 detectable by flow cytometry (FIG. 2C).
In general terms: An ELISA detects its analyte on a solid surface through an enzyme-linked reagent.

In another test the test system is DC from C3H/HeJ mice. In words: DC maturation: surface expression of MHC class II, CD80, CD86 by flow cytometry. The conditions noted are these: 100 ng/ml, 24 hours vs medium only. It counts as cell-based. The method, then: as §1
Following stimulation, DC were stained with CD11c (clone N418; eBioscience), MHCII (clone M5/114.15.2 ebioscience), CD80 (clone 16-10A1 eBioscience) and CD86 (clone […] eBioscience). Samples were analyzed with a FACS DIVA and FloJo software.
as §3

For test [2], the target named is T1, TLR2 (Mus musculus, UniProt Q9EPQ1+Q9QUN7).
T1 construct: Bone marrow derived dendritic cells (DCs) were prepared by culturing bone marrow cells obtained from the femur and tibia of mice; endogenous in cells; host or cells: bone marrow-derived dendritic cells from C3H/HeJ mice (A3, A25) or C57BL/6 mice (A13)
In words: BP1569-induced TNF-α production by DC with TLR2 blocking antibody. Particulars: BP1569 100 ng/ml, 24 h, anti-TLR2 T2.5 2.5 μg/ml. In kind it is cell-based, mice. The protocol:
as §1
(§4) Blocking antibodies were used against TLR2 to determine if the proteins can activate TLR2 specifically. […] Lipase treatment was used to confirm that the immunostimulatry effects of BP1569 were due the presence of the characteristic acyl side chain of the lipoprotein. The recombinant lipoprotein was incubated with two separate lipases for 18 h prior to stimulation of DC. Lipase treatment abolished BP1569-induced IL-12p40 and IL-6 production (FIG. 2E), but had no effect on cytokine production induced by the TLR9 agonist CpG (data not shown), confirming that BP1569 contains lipid side chains capable of triggering TLR2-induced inflammatory cytokine production.

The test system of the next test is BMDC from C3H/HeJ mice. In words: Lipase treatment of lipoprotein before stimulation of DC. In kind it is cell-based. Particulars: lipase from Aspergillus or Pseudomonas, 18 h. The protocol: as §1, §4
Test [3] deals with T2, human TLR2 (Homo sapiens, UniProt O60603+Q15399).
T2 construct: expressed in transfected cells; host or cells: HEK 293T
Nature of the test: NF-κB luciferase reporter assay in HEK 293T cells stably expressing TLR2. In kind it is cell-based. Particulars: 100 ng/ml, HEK 293T-TLR2, devoid of TLR4. The method, then:
(§5) Luciferase activity was quantified after 24 h. […] IL-8 production was quantified after 24 h. […] After 24 h, the concentrations of IL-6 in supernatants were determined by ELISA.
HEK 293T cells stably expressing human TLR2 were transfected with an NF-κB luciferase construct as described previously (21) and stimulated overnight with the indicated concentrations of BP1569.
(§6) Cytokine production by TLR2 requires activation of the transcription factors NF-κB and p38 MAP kinase. To determine if BP1569 activates NF-κB, HEK 293T cells stably expressing TLR2, but devoid of TLR4, were transfected with an NF-κB luciferase reporter construct. […] To assess activation of the MAP kinase pathway, spleen cells from C3H/HeJ mice were stimulated with BP1569. […] TLR agonists can bind to TLR1/2 or TLR2/6 heterodimers, therefore, the role of these TLRs using specific blocking antibodies to human TLR1 and TLR6 was examined.
In general terms: In a reporter assay the amount or activity of a reporter protein is the signal.

For test [4], the target named is T2, human TLR2. In words: IL-8 production by TLR2 transfected HEK 293T cells. In kind it is cell-based. Particulars: HEK 293T-TLR2, 24 h. The method, then:
as §5, §6

For the next test, the system named is p38 MAP kinase. Nature of the test: p38 phosphorylation in spleen cells (Western blot). It counts as cell-based. Particulars: spleen cells from C3H/HeJ mice. The method, then:
as §5, §2
Cytokine production by TLR2 requires activation of the transcription factors NF-κB and p38 MAP kinase. […]
Background: In western blotting, separated proteins are transferred to a membrane and probed.

A further test deals with T3, human TLR1 (Homo sapiens, UniProt O60603+Q15399).
T3 construct: endogenous in cells; host or cells: human PBMC
In words: BP1569-induced IL-6 in human PBMC with TLR1 blocking antibody. In kind it is cell-based. The conditions noted are these: 100 ng/ml, 24 h. The protocol:
as §5, §6

Another test has as its target T4, human TLR6 (Homo sapiens, UniProt Q9Y2C9).
T4 construct: endogenous in cells; host or cells: human PBMC
Nature of the test: BP1569-induced IL-6 in human PBMC with anti-TLR6 antibody. In kind it is cell-based. The conditions noted are these: 100 ng/ml, 24 h. The method, then:
as §5, §6

The subject of test [5] is C3H/HeJ mice. In words: Cytokine induction in vivo by BP1569 (serum ELISA). Particulars: 70 μg intraperitoneally, 3 h, versus PBS controls. The protocol:
(§7) After 3 h serum IL-12 and IL-6 concentrations were quantified by ELISA. […] After seven days the draining lymph node was harvested and cells were stimulated with BP1569 (2 μg/ml). […] After seven days the draining lymph node was harvested and cells were stimulated with total heat killed B. pertussis 1-100×10^6/ml).
C3H/HeJ mice were treated intraperitoneally with BP1569 (70 μg) or PBS control and serum cytokines were measured by ELISA after 3h.
C3H/HeJ mice were treated intraperitoneally with BP1569 (70 μg) and serum cytokines were measured after 3 h.

For test [6], the system named is C3H/HeJ mice. In words: Antigenicity of BP1569: footpad immunization, lymph node cell re-stimulation. In kind it is in vivo. Particulars: 10 μg footpad. The method, then: as §7
C3H/HeJ mice were injected into the footpad with BP1569 (10 μg) diluted in PBS or with PBS only. After seven days the draining lymph node was harvested and the lymph node cells were stimulated with either BP1569 (2 μg/ml) or heat killed B. pertussis pertussis (1-100×10^6/ml). After 3 days of culture, the concentration of IFN-γ in supernatants was quantified by ELISA.
The possibility that BP1569 was immunogenic in vivo and capable of inducing B. pertussis-specific immune responses was examined. C3H/HeJ mice were injected into the footpad with BP1569 (10 μg) diluted in PBS or with PBS only. After seven days the draining lymph node was harvested and the lymph node cells were stimulated with either BP1569 (2 μg/ml) or heat killed B. pertussis.

Test [7] has as its system TLR2. In words: BP2992 activity as TLR2 ligand (data not shown). The source says:
C-terminal histidine versions of the putative lipoproteins were constructed and expressed in E. coli by IPTG induction. BP1569 and BP2992 were successfully expressed and purified by nickel affinity followed by ion-exchange chromatography. […] Therefore, the inventors adopted a strategy of carrying out all initial studies with lipoproteins in TLR4 defective cells or mice and then synthesized lipopeptide versions of the lipoproteins for more thorough immunological analysis.

The subject of test [8] is dendritic cells from C3H/HeJ mice. In words: BP2992 maturation and cytokine production by dendritic cells. It counts as cell-based. The conditions noted are these: 24 h. The protocol: Lane 1: 5 ng BP2992; lane 2: 10 ng BP2992.
Test [9] deals with T1, TLR2. In words: BP2992 cytokine production by DC with anti-TLR2 antibody. It counts as cell-based, mice. Particulars: with or without anti-TLR2 T2.5 2.5 μg/ml, 24 hours. The method, then: After 24 hours IL-6 production was measured by ELISA. […] After 24 hours TNF-α production was measured by ELISA.
Test [10] has as its system human peripheral blood mononuclear cells (PBMC). In words: BP2992 cytokine production from human PBMC. In kind it is cell-based. The conditions noted are these: 0.01-1 μg/ml, 24 h, two donors. The method, then: PBMC from two human donors (A and B) were treated with BP2992 (0.01-1 μg/ml), After 24 h, the concentrations of TNF-α in supernatants were determined by ELISA.

T2 sequence (O60603 21-784): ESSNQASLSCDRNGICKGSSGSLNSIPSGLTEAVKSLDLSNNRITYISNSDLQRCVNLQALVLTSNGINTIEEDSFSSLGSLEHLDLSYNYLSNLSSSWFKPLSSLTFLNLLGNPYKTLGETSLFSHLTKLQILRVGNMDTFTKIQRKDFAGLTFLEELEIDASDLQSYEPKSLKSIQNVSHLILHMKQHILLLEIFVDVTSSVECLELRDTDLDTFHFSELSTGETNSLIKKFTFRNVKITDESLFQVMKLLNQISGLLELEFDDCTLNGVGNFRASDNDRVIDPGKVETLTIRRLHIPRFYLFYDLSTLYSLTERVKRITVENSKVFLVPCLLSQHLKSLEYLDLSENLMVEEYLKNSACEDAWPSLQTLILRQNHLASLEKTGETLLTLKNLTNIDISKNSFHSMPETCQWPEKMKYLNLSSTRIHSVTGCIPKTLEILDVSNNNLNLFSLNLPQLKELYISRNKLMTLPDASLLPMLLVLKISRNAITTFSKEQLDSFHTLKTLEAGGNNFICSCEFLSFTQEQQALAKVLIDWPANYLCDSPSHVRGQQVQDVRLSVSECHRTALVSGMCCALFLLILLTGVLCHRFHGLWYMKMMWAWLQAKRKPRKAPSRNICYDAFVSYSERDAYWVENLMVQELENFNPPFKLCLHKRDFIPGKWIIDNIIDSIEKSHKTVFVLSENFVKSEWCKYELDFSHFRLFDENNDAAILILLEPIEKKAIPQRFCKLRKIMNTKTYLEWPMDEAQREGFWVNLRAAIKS
T2 sequence (Q15399 25-786): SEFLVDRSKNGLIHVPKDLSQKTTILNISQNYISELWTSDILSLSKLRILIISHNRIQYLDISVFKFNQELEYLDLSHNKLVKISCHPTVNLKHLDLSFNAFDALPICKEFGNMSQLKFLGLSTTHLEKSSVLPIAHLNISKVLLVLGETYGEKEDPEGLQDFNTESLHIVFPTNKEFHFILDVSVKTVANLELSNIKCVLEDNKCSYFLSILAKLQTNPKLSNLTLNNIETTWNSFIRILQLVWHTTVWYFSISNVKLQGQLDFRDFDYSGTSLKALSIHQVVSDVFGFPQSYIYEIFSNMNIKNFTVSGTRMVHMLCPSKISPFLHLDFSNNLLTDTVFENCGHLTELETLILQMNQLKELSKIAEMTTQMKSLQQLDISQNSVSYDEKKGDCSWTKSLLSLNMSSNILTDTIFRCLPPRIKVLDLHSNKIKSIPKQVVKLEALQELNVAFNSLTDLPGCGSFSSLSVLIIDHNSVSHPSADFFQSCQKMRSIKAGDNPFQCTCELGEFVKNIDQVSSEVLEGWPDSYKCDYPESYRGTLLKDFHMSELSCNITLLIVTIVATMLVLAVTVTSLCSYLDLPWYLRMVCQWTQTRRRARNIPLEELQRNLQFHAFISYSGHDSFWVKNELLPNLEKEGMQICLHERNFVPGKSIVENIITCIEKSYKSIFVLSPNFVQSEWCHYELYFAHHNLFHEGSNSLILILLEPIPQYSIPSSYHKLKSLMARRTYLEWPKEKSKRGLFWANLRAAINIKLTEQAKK
T1 sequence (Q9QUN7 25-784): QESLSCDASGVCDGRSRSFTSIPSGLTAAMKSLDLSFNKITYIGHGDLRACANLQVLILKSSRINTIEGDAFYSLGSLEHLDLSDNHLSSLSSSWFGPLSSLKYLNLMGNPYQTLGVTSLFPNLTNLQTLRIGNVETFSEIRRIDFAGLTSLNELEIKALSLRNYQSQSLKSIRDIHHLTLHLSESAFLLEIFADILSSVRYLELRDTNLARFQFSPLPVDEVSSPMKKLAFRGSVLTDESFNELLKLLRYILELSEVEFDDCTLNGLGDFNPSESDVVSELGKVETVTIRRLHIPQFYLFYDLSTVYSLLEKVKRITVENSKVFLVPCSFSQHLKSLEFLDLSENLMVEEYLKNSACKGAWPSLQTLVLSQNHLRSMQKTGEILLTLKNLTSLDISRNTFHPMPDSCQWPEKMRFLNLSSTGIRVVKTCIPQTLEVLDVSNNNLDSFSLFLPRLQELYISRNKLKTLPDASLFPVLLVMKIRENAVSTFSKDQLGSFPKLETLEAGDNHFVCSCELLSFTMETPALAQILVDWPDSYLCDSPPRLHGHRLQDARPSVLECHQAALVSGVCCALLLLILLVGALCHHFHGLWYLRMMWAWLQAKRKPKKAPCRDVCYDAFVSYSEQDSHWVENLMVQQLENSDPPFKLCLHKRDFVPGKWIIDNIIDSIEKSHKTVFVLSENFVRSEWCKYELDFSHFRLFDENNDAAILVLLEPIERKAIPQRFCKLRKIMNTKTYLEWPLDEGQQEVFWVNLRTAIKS
T1 sequence (Q9EPQ1 26-795): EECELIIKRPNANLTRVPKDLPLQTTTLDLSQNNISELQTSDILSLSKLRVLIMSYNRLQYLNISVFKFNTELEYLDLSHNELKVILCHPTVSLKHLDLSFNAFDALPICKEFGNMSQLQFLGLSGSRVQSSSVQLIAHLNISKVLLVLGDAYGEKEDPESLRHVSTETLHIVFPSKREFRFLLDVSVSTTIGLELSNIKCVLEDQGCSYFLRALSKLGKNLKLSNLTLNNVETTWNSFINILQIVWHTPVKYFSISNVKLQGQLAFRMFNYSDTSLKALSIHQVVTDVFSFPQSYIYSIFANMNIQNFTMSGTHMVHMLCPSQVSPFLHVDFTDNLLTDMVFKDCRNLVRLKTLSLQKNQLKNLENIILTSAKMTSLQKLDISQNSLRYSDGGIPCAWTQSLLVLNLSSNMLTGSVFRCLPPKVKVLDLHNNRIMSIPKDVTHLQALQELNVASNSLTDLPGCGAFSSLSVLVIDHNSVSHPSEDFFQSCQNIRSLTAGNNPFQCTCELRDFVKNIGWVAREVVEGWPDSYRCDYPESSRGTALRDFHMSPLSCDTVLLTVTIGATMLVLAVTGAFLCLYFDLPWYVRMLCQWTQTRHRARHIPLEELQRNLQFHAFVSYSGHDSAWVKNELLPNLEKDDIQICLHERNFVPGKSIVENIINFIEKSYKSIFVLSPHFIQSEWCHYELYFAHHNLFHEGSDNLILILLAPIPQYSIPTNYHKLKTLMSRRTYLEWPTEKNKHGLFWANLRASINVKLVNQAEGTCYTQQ
T3 sequence (Q15399 25-786): as the sequence (Q15399 25-786) above
T3 sequence (O60603 21-784): as the sequence (O60603 21-784) above
T4 sequence (O60603 21-784 partner): as the sequence (O60603 21-784) above
T4 sequence (Q9Y2C9 32-796): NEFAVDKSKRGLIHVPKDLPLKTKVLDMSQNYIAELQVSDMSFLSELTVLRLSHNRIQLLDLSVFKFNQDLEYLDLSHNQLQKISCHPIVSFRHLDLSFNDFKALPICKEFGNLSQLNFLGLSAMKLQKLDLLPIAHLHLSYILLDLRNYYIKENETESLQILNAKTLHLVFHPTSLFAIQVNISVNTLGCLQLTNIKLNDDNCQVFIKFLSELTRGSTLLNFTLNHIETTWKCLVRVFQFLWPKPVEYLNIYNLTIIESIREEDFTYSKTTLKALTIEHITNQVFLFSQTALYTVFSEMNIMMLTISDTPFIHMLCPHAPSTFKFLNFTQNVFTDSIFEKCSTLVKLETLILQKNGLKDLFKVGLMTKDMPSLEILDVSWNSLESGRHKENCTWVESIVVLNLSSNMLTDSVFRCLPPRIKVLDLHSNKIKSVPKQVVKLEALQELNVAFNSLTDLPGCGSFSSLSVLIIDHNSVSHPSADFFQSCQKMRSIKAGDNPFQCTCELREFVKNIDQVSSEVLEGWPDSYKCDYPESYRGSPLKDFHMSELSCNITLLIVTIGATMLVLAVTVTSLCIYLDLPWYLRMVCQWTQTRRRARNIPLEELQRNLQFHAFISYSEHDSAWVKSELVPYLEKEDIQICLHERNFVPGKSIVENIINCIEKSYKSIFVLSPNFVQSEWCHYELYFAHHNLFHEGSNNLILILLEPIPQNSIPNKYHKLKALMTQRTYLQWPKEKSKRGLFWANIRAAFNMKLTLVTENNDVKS

B1: BP1569: full length B. pertussis lipoprotein BP1569, ~40 kDa, TLR2 agonist (protein, listed as Bordetella pertussis)
chain: MRMNKRHAGASALMALALLAGCSDVNQLLGNEESVDYKSTRRGDPLSIPPDLTQANNDPRYKAPASGTATYSQFQQQGLQQQASAGQNTNVLPERADMRVERDGDLRWLVIERPPEQLFSKVVDFWTDTGFTVSVNNPQAGIIETDWAENRAKIPESWLRQVLGSVLETAWDSGEREKFRTRVERVNGHTEIYITHNQMLEKRVGSDGGQVQWTHGKEDPGLNAAMLARLMVYLGTDVDAARKLVAQAEAAPQAPKVQSVRAEGAMLVVDESFDRAWRRVGVALDSGGFAVDDRDRSAGEYFVRYVDTDTGAQNEQPGFFSRLFSSDKKAQAPQYRIRLTGSGTQTQVTVLDANGQRDSSATAQRMLSVLKDKMV
B1: in test [1], the “IL-6 production by DC” value is given as “induced robust”, the “IL-12 production by DC” value is given as “induced robust”, the “IL-23 production by DC” value is “induced robust” and the “TNF-α production by DC” value was “induced robust”. In the test on DC from C3H/HeJ mice, the “surface expression of CD80” value is recorded as “enhanced”, the “surface expression of CD86” value is “enhanced” and the “surface expression of MHC class II” value was “enhanced”. For the same molecule, in the test with TLR2 [2], the “BP1569-induced TNF-α production in the presence of the TLR2 blocking antibody” value is recorded as “completely abrogated”. Further, the “effect of lipase treatment on induced IL-6 production” value in the test on BMDC from C3H/HeJ mice (100 ng/ml on DC) is “abolished”. Further, in the test on BMDC from C3H/HeJ mice (then DC stimulation), the “effect of lipase treatment on induced IL-12p40 production” value was “abolished”. In addition, the “luciferase activity (NF-κB reporter)” value in the test with human TLR2 [3] was “significant increase”. Further, in the test with human TLR2 [4], the IL-8 production result was “increased”. Also, in the test on p38 MAP kinase (15 minutes following stimulation), the p38 phosphorylation result was “enhanced”. Moreover, the “p38 phosphorylation with anti-TLR2 blocking antibody” value in the test on p38 MAP kinase (T2.5 2.5 μg/ml) is reported as “inhibited”. In addition, the “BP1569-induced IL-6 production with TLR1 blocking antibody” value with human TLR1 was “significantly reduced”. Further, the “BP1569-induced IL-6 production with anti-TLR6 antibody” value in the test with human TLR6 was “little effect”. Besides, in the test on C3H/HeJ mice [5], the “serum IL-6” value is “Significant concentrations” and the “serum IL-12” value is “Significant concentrations”. Moreover, the “BP1569-specific IFN-γ by lymph node cells” value in the test on C3H/HeJ mice [6] (day 7, re-stimulated with BP1569 2 μg/ml) is on record as “induced at significant levels”. Also, the “IFN-γ upon re-stimulation with heat killed B. pertussis” value in the test on C3H/HeJ mice [6] (day 7 lymph node cells) is recorded as “produced IFN-γ”.

B2: BP2992: full length B. pertussis lipoprotein BP2992, ~16 kDa (protein, listed as Bordetella pertussis)
chain: NYMHSPSVVAGRARRLLAVAAVAGSVAVLAGCANPSASSGVYTYGQAQREQIVRTGTVTGVRPITIQNDKSSGVGLVAGGALGGVAGNAVGGGTGRTIATVGGVILGALAGNAIENRAGKSSGYEITVRLDNGETRVVAQEADVPISVGQRVQVISGAGPTRVTPY
As to B2, the “ligand activity for TLR2” value in the test with TLR2 [7] is reported as “immunologically active ligand for TLR2”. For the same molecule, the “maturation of dendritic cells (MHC class II, CD80, CD86)” value in [8] (100 ng/ml) is “induces”. In addition, the “pro-inflammatory cytokine production by dendritic cells” value in test [8] (50, 100 and 1000 ng/ml) is listed as “induces”. Further, the “TLR2 dependence of pro-inflammatory cytokine production by DCs (IL-6, TNF-α)” value with TLR2 [9] is listed as “in a TLR2 dependent manner”. In addition, the “pro-inflammatory cytokine production (TNF-α) from human PBMC” value in [10] is “induces”.
